Data: PMC12416549 (2024)

T1: TNFR1 (Homo sapiens, UniProt P19438)
T1 chain: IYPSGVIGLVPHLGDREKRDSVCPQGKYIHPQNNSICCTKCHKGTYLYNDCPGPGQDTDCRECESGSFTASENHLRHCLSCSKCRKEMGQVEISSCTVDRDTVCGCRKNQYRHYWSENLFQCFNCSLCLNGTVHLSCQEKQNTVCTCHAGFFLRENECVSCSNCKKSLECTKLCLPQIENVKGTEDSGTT


Target: T1, TNFR1
Assay: yeast display SC50

Row | Binder | apparent Kd (screen) [nM]
1 | A90T (designed binder) SMEEEVEKAAKEYEKKKKEAIEKHLEKLKAKDKEAAERFLKELEEAAKEYAKDEAKTMSEEEAKRRAKKYKEKVLLSELSEEEQKEIKETEEKLVRTILKYVEEAAK | 0.593
2 | E37D (designed binder) SMEEEVEKAAKEYEKKKKEAIEKHLEKLKAKDKEAADRFLKELEEAAKEYAKDEAKTMSEEEAKRRAKKYKEKVLLSELSEEEQKEIKEAEEKLVRTILKYVEEAAK | 0.539
3 | K15H (designed binder) SMEEEVEKAAKEYEHKKKEAIEKHLEKLKAKDKEAAERFLKELEEAAKEYAKDEAKTMSEEEAKRRAKKYKEKVLLSELSEEEQKEIKEAEEKLVRTILKYVEEAAK | 0.49
4 | I21L (designed binder) SMEEEVEKAAKEYEKKKKEALEKHLEKLKAKDKEAAERFLKELEEAAKEYAKDEAKTMSEEEAKRRAKKYKEKVLLSELSEEEQKEIKEAEEKLVRTILKYVEEAAK | 1.16
5 | Y101F (designed binder) SMEEEVEKAAKEYEKKKKEAIEKHLEKLKAKDKEAAERFLKELEEAAKEYAKDEAKTMSEEEAKRRAKKYKEKVLLSELSEEEQKEIKEAEEKLVRTILKFVEEAAK | 0.49
6 | D32Y (designed binder) SMEEEVEKAAKEYEKKKKEAIEKHLEKLKAKYKEAAERFLKELEEAAKEYAKDEAKTMSEEEAKRRAKKYKEKVLLSELSEEEQKEIKEAEEKLVRTILKYVEEAAK | 13.8
7 | Y13S (designed binder) SMEEEVEKAAKESEKKKKEAIEKHLEKLKAKDKEAAERFLKELEEAAKEYAKDEAKTMSEEEAKRRAKKYKEKVLLSELSEEEQKEIKEAEEKLVRTILKYVEEAAK | 0.49
8 | S59T (designed binder) SMEEEVEKAAKEYEKKKKEAIEKHLEKLKAKDKEAAERFLKELEEAAKEYAKDEAKTMTEEEAKRRAKKYKEKVLLSELSEEEQKEIKEAEEKLVRTILKYVEEAAK | 1.54
9 | D32N (designed binder) SMEEEVEKAAKEYEKKKKEAIEKHLEKLKAKNKEAAERFLKELEEAAKEYAKDEAKTMSEEEAKRRAKKYKEKVLLSELSEEEQKEIKEAEEKLVRTILKYVEEAAK | 0.79
10 | K23L (designed binder) SMEEEVEKAAKEYEKKKKEAIELHLEKLKAKDKEAAERFLKELEEAAKEYAKDEAKTMSEEEAKRRAKKYKEKVLLSELSEEEQKEIKEAEEKLVRTILKYVEEAAK | 0.79
11 | E42A (designed binder) SMEEEVEKAAKEYEKKKKEAIEKHLEKLKAKDKEAAERFLKALEEAAKEYAKDEAKTMSEEEAKRRAKKYKEKVLLSELSEEEQKEIKEAEEKLVRTILKYVEEAAK | 10.4
12 | E37M (designed binder) SMEEEVEKAAKEYEKKKKEAIEKHLEKLKAKDKEAAMRFLKELEEAAKEYAKDEAKTMSEEEAKRRAKKYKEKVLLSELSEEEQKEIKEAEEKLVRTILKYVEEAAK | 0.718
13 | K31N (designed binder) SMEEEVEKAAKEYEKKKKEAIEKHLEKLKANDKEAAERFLKELEEAAKEYAKDEAKTMSEEEAKRRAKKYKEKVLLSELSEEEQKEIKEAEEKLVRTILKYVEEAAK | 0.79
14 | A55Y (designed binder) SMEEEVEKAAKEYEKKKKEAIEKHLEKLKAKDKEAAERFLKELEEAAKEYAKDEYKTMSEEEAKRRAKKYKEKVLLSELSEEEQKEIKEAEEKLVRTILKYVEEAAK | 10.4
15 | E22A (designed binder) SMEEEVEKAAKEYEKKKKEAIAKHLEKLKAKDKEAAERFLKELEEAAKEYAKDEAKTMSEEEAKRRAKKYKEKVLLSELSEEEQKEIKEAEEKLVRTILKYVEEAAK | 0.539
16 | L43D (designed binder) SMEEEVEKAAKEYEKKKKEAIEKHLEKLKAKDKEAAERFLKEDEEAAKEYAKDEAKTMSEEEAKRRAKKYKEKVLLSELSEEEQKEIKEAEEKLVRTILKYVEEAAK | 6.43
17 | L76G (designed binder) SMEEEVEKAAKEYEKKKKEAIEKHLEKLKAKDKEAAERFLKELEEAAKEYAKDEAKTMSEEEAKRRAKKYKEKVLGSELSEEEQKEIKEAEEKLVRTILKYVEEAAK | 11.4
18 | H24Y (designed binder) SMEEEVEKAAKEYEKKKKEAIEKYLEKLKAKDKEAAERFLKELEEAAKEYAKDEAKTMSEEEAKRRAKKYKEKVLLSELSEEEQKEIKEAEEKLVRTILKYVEEAAK | 1.69

Row | Binder | apparent Kd (screen) [nM]
19 | K41P (designed binder) SMEEEVEKAAKEYEKKKKEAIEKHLEKLKAKDKEAAERFLPELEEAAKEYAKDEAKTMSEEEAKRRAKKYKEKVLLSELSEEEQKEIKEAEEKLVRTILKYVEEAAK | 2.48
20 | K29P (designed binder) SMEEEVEKAAKEYEKKKKEAIEKHLEKLPAKDKEAAERFLKELEEAAKEYAKDEAKTMSEEEAKRRAKKYKEKVLLSELSEEEQKEIKEAEEKLVRTILKYVEEAAK | 7.78
21 | E89I (designed binder) SMEEEVEKAAKEYEKKKKEAIEKHLEKLKAKDKEAAERFLKELEEAAKEYAKDEAKTMSEEEAKRRAKKYKEKVLLSELSEEEQKEIKIAEEKLVRTILKYVEEAAK | 3
22 | A67C (designed binder) SMEEEVEKAAKEYEKKKKEAIEKHLEKLKAKDKEAAERFLKELEEAAKEYAKDEAKTMSEEEAKRRCKKYKEKVLLSELSEEEQKEIKEAEEKLVRTILKYVEEAAK | 22.2
23 | A106S (designed binder) SMEEEVEKAAKEYEKKKKEAIEKHLEKLKAKDKEAAERFLKELEEAAKEYAKDEAKTMSEEEAKRRAKKYKEKVLLSELSEEEQKEIKEAEEKLVRTILKYVEEASK | 0.79
24 | E3C (designed binder) SMCEEVEKAAKEYEKKKKEAIEKHLEKLKAKDKEAAERFLKELEEAAKEYAKDEAKTMSEEEAKRRAKKYKEKVLLSELSEEEQKEIKEAEEKLVRTILKYVEEAAK | 7.07
25 | Q84G (designed binder) SMEEEVEKAAKEYEKKKKEAIEKHLEKLKAKDKEAAERFLKELEEAAKEYAKDEAKTMSEEEAKRRAKKYKEKVLLSELSEEEGKEIKEAEEKLVRTILKYVEEAAK | 12.5
26 | E54G (designed binder) SMEEEVEKAAKEYEKKKKEAIEKHLEKLKAKDKEAAERFLKELEEAAKEYAKDGAKTMSEEEAKRRAKKYKEKVLLSELSEEEQKEIKEAEEKLVRTILKYVEEAAK | 11.4
27 | E62C (designed binder) SMEEEVEKAAKEYEKKKKEAIEKHLEKLKAKDKEAAERFLKELEEAAKEYAKDEAKTMSEECAKRRAKKYKEKVLLSELSEEEQKEIKEAEEKLVRTILKYVEEAAK | 2.73
28 | E62Q (designed binder) SMEEEVEKAAKEYEKKKKEAIEKHLEKLKAKDKEAAERFLKELEEAAKEYAKDEAKTMSEEQAKRRAKKYKEKVLLSELSEEEQKEIKEAEEKLVRTILKYVEEAAK | 0.79
29 | E14G (designed binder) SMEEEVEKAAKEYGKKKKEAIEKHLEKLKAKDKEAAERFLKELEEAAKEYAKDEAKTMSEEEAKRRAKKYKEKVLLSELSEEEQKEIKEAEEKLVRTILKYVEEAAK | 12.5
30 | E22T (designed binder) SMEEEVEKAAKEYEKKKKEAITKHLEKLKAKDKEAAERFLKELEEAAKEYAKDEAKTMSEEEAKRRAKKYKEKVLLSELSEEEQKEIKEAEEKLVRTILKYVEEAAK | 0.539
31 | E22Q (designed binder) SMEEEVEKAAKEYEKKKKEAIQKHLEKLKAKDKEAAERFLKELEEAAKEYAKDEAKTMSEEEAKRRAKKYKEKVLLSELSEEEQKEIKEAEEKLVRTILKYVEEAAK | 0.718
32 | Y50P (designed binder) SMEEEVEKAAKEYEKKKKEAIEKHLEKLKAKDKEAAERFLKELEEAAKEPAKDEAKTMSEEEAKRRAKKYKEKVLLSELSEEEQKEIKEAEEKLVRTILKYVEEAAK | 4.39
33 | K41A (designed binder) SMEEEVEKAAKEYEKKKKEAIEKHLEKLKAKDKEAAERFLAELEEAAKEYAKDEAKTMSEEEAKRRAKKYKEKVLLSELSEEEQKEIKEAEEKLVRTILKYVEEAAK | 0.869
34 | Y70E (designed binder) SMEEEVEKAAKEYEKKKKEAIEKHLEKLKAKDKEAAERFLKELEEAAKEYAKDEAKTMSEEEAKRRAKKEKEKVLLSELSEEEQKEIKEAEEKLVRTILKYVEEAAK | 0.718
35 | S77A (designed binder) SMEEEVEKAAKEYEKKKKEAIEKHLEKLKAKDKEAAERFLKELEEAAKEYAKDEAKTMSEEEAKRRAKKYKEKVLLAELSEEEQKEIKEAEEKLVRTILKYVEEAAK | 0.49
